± gives the standard error. For some assays here: This sample holds only a part of the variants without activity.
B1: glmS ribozyme (parent)
chain: AUAAAAGCGCCAGAACUACAGAAAUGUAGUUGACGAGGAGGAGGUUUAUCGAAUUUUCGGCGGAUGCCUCCAAA

Columns and labels:
Conditions in all cases: with glucosamine-6-phosphate
glucosamine-6-phosphate [1] = variants of: B1; assay: kcat; higher = faster cleavage; RNA array
In short: (§1)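 Glucosamine-6-phosphate in HEPES/KCl/Mg(OAc)2 buffer, at 40 μM to 10 mM, was flowed over barcoded ribozyme variants transcribed in situ by E. coli RNA polymerase on sequenced MiSeq chips. Tracking was through a hybridised Cy3 probe at 37 °C. kobs, kcat and KM came from exponential decay fits and weighted Michaelis–Menten fits of normalised per-tile medians.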

glucosamine-6-phosphate [2] = variants of: B1; assay: KM; higher = weaker cofactor use; RNA array
In short: as §1

glucosamine-6-phosphate [3] = variants of: B1; assay: self-cleavage kobs at 40 uM GlcN6P; higher = faster cleavage; RNA array
In short: as §1

glucosamine-6-phosphate [4] = variants of: B1; assay: self-cleavage kobs at 160 uM GlcN6P; higher = faster cleavage; RNA array
In short: as §1

glucosamine-6-phosphate [5] = variants of: B1; assay: self-cleavage kobs at 640 uM GlcN6P; higher = faster cleavage; RNA array
In short: as §1

glucosamine-6-phosphate [6] = variants of: B1; assay: self-cleavage kobs at 2500 uM GlcN6P; higher = faster cleavage; RNA array
In short: as §1

glucosamine-6-phosphate [7] = variants of: B1; assay: self-cleavage kobs at 10000 uM GlcN6P; higher = faster cleavage; RNA array
In short: as §1

Variant	kcat (glucosamine-6-phosphate [1]) [s⁻¹]	KM (glucosamine-6-phosphate [2]) [µM]	self-cleavage kobs at 40 uM GlcN6P (glucosamine-6-phosphate [3]) [s⁻¹]	self-cleavage kobs at 160 uM GlcN6P (glucosamine-6-phosphate [4]) [s⁻¹]	self-cleavage kobs at 640 uM GlcN6P (glucosamine-6-phosphate [5]) [s⁻¹]	self-cleavage kobs at 2500 uM GlcN6P (glucosamine-6-phosphate [6]) [s⁻¹]	self-cleavage kobs at 10000 uM GlcN6P (glucosamine-6-phosphate [7]) [s⁻¹]
AUAAAAGCGCCAGACCUACAGAAAUGUAGUUGACGAGGAGGAGGUUUAUCGAAGUUUCGGCGGAUGCCUCCAAA [A15C U54G]	0.00559 ± 0.0011	2690 ± 780	0.000104 ± 1.6e-05	0.000285 ± 5.1e-05	0.000903 ± 0.00029	0.00205 ± 0.00055	0.00475 ± 0.0006
AUAAAAGCGCCAGAGCUACAGAAAUGUAGUUGACGAGGAGGAGGUUUAUCGCAUUUUCGGCGGAUGCCUCCAAA [A15G A52C]	2.96e-05 ± 2e-06	1090 ± 400	< 1e-05				2.66e-05 ± 9.9e-06
AUAAAAGCGCCAGAGCUACAGAAAUGUAGUUGACGAGGAGGUGGUUUAUCGAAUUUUCGGCGGAUGCCUCCAAA [A15G A42U]	0.000248 ± 4.1e-05	1410 ± 570		2.77e-05 ± 1.4e-05	6.62e-05 ± 1.7e-05	0.000216 ± 3.8e-05	0.000203 ± 3e-05
AUAAAAGCGCCAGACCUACAGAAAUGUAGUUGACGAGGAGGAGGUUUAUCGAAUCUUCGGCGGAUGCCUCCAAA [A15C U55C]	0.00633 ± 0.0012	2200 ± 580	0.000138 ± 2e-05	0.000383 ± 7.4e-05	0.00121 ± 0.00034	0.00302 ± 0.00052	0.00573 ± 0.00087
AUAAAAGCGCCAGACCUACAGAAAUGUAGUUGACGAGGAGGAGGUUUAUCGAAUUUGCGGCGGAUGCCUCCAAA [A15C U57G]	2.37e-05 ± 5.5e-06		< 1e-05	< 1e-05			
AUAAAAGCGCCAGACCUACAGAAAUGUAGUUGACGAGGAGGAGGUUUAUCGAAUUUUCGGCGGAGGCCUCCAAA [A15C U65G]	0.00172 ± 0.00056	4120 ± 1900	3.62e-05 ± 1.3e-05	4.69e-05 ± 1.1e-05	0.000252 ± 3.6e-05	0.000818 ± 0.00012	0.00111 ± 0.00017
AUAAAAGCGCCAGACCUACAGAAAUGUAGUUGACGAGGAGGAGGUUUAUCGAAUUAUCGGCGGAUGCCUCCAAA [A15C U56A]	0.00477 ± 0.0013	1930 ± 760	0.000113 ± 1.7e-05		0.00107 ± 0.00016	0.00218 ± 0.0005	0.00482 ± 0.0008
AUAAAAGCGCCAGACCUACAGAAAUGUAGUUGACGAGGAGGAGGUUUAUCGAAUUCUCGGCGGAUGCCUCCAAA [A15C U56C]	0.00118 ± 0.00019	2470 ± 690		8.66e-05 ± 1.7e-05	0.000202 ± 3.2e-05	0.000708 ± 9.2e-05	0.000914 ± 9.9e-05
AUAAAAGCGCCAGACCUACAGAAAUGUAGUUGACGAGGAGGAGGUUGAUCGAAUUUUCGGCGGAUGCCUCCAAA [A15C U47G]	0.000994 ± 5.2e-05	1270 ± 120	3.18e-05 ± 7.5e-06	0.000121 ± 2e-05	0.000312 ± 3.6e-05	0.000675 ± 8.1e-05	0.000889 ± 9.5e-05
AUAAAAGCGCCAGACCUACAGAAAUGUAGUUGACGAGGAGGAGGUUAAUCGAAUUUUCGGCGGAUGCCUCCAAA [A15C U47A]	0.00412 ± 0.0012	2080 ± 870	0.000116 ± 1.4e-05	0.000266 ± 5.3e-05	0.000773 ± 0.00011	0.00226 ± 0.00034	0.00367 ± 0.00044
AUAAAAGCGCCAGAGCUACAGAAAUGUAGUUGACGAGGAGGAGGUUUAUCGAAUUUUCGGCGGUUGCCUCCAAA [A15G A64U]	0.000233 ± 2.7e-05	3870 ± 820			3.22e-05 ± 9e-06	9.11e-05 ± 1.2e-05	0.000169 ± 2.4e-05
AUAAAAGCGCCAGACCUACAGAAAUGUAGUUGACGAGGAGGAGGUAUAUCGAAUUUUCGGCGGAUGCCUCCAAA [A15C U46A]	0.000358 ± 0.00016				0.000102 ± 2.1e-05	0.000152 ± 3.8e-05	0.000416 ± 9.4e-05
AUAAAAGCGCCAGACCUACAGAAAUGUAGUUGACGAGGAGGAGGUCUAUCGAAUUUUCGGCGGAUGCCUCCAAA [A15C U46C]	0.000304 ± 5.3e-05	1330 ± 520			0.000119 ± 1.9e-05	0.000176 ± 2.5e-05	0.000295 ± 4.8e-05

Source: the supplement of paper PMC7125110
